What was measured:
[1] = system: BRCA1-deficient RPE1-hTERT cells; assay: Olaparib sensitivity assay; assay type: cell-based; settings: viral delivery of HA-tagged i53; compared to genetic deletion of 53BP1; Trypan blue viable count
Source text: FIG. 9 Expression of i53 suppresses PARP inhibitor sensitivity of BRCA1-deficience cells. FIG. 9A, An isogenic set of cell lines derived from RPE 1-hTERT cells deleted for the gene coding for p53 (TP53Δ) containing either no further mutations (WT) or null mutations in BRCA1 (BRCA1Δ) or 53BP1 (53BP1Δ) alone or in combination, as indicated. These cell lines were transduced either with an empty virus (EV) or with lentiviruses that express HA-tagged i53 or its DM mutant. The virus also expressed GFP from an IRES. After sorting for GFP cells the viability of cells following olaparib treatment for […] was monitored by trypan blue exclusion. Data is presented as the mean +/− s.d. (N=3). FIG. 9B , Whole-cell extracts from the isogenic sets of RPE1-hTERT TP53Δ cells were separated by SDS page and probed by immunoblotting with the indicated antibodies. FIG. 9C , Expression of the HA-tagged Ubvs in the indicated RPE1-hTERT TP53Δ cell lines was determined by anti-HA immunoprecipitation (IP) followed by immunoblotting.
RPE1 hTERT cells were obtained from ATTC and maintained in DMEM +10% FCS. […]
Cells were seeded at a density of 20,000 cells/well in 6-well plates in the presence of olaparib at day 0. […] At day 6, cells were collected by trypsinization and viable cell count was determined by Trypan blue exclusion using an automated cell counter (Vi-CELL, Beckman Coulter).

[2] = biological target: T1, GSPT1 (Homo sapiens, UniProt P15170); assay: Flag IP-MS of i53/i53-DM baits: prey GSPT1; assay type: binding; settings: 293T Flp-In/T-Rex extracts, LC-MS/MS, one column per replicate IP
T1 construct: endogenous in cells; host or cells: HEK293 Flp-In/T-REx
T1 sequence (P15170 whole entry): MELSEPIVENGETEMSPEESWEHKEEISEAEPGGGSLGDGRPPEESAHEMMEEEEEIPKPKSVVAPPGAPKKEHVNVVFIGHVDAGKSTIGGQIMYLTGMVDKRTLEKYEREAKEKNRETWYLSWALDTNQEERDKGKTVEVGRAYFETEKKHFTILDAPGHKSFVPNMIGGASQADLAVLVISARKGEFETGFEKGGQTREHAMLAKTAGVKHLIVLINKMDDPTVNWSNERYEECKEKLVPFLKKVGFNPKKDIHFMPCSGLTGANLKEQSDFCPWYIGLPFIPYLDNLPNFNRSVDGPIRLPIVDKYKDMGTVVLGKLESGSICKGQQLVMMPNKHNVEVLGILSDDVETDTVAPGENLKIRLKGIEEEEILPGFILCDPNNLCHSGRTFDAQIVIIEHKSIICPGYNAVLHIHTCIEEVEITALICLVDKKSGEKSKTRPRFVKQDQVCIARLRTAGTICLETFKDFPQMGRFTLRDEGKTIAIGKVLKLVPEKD
Method: (§1) Following immunoprecipitation of Flag-tagged i53 and i-53-DM from HEK293 Flp-In/T-REx cells, peptides were identified using LC-MS/MS. Proteins were digested in solution with trypsin (Sigma, T7575-1KT) and dried to completeness. For LC-MS/MS analysis, peptides were reconstituted in 5% formic acid and loaded onto a 12-15 cm fused silica column with pulled tip packed in-house with 3.5 μm Zorbax C18 (Agilent Technologies, Calif., USA).
(§2) i53 and i53-DM precipitates were analyzed using an LTQ (Thermo Scientific) coupled to an Agilent 1100 Series HPLC (Agilent Technologies). Peptides were eluted from the column using a 90 min period cycle with a linear gradient from 0% to 40% ACN in 0.1% formic acid. Tandem MS spectra were acquired in a data-dependent mode for the top 5 (LTQ) most abundant ions using collision-induced dissociation. Acquired spectra were searched against the human Refseq_V53 database using Mascot (Matrix Science).
(§3) 293T Flp-In/T-Rex cell lines were generated that expressed Flag-tagged i53 or i53-DM under the control of a tetracycline-inducible promoter as previously described. Nine IP-MS experiments were analyzed (3 biological replicate IPs each for control i53- and i53-DM expressing cell lines). The interacting proteins were identified by MASCOT to identify high-confidence interactors for i53. […]

[3] = biological target: T2, PHB (Homo sapiens, UniProt P35232); assay: Flag IP-MS of i53/i53-DM baits: prey PHB; assay type: binding; settings: 293T Flp-In/T-Rex extracts, LC-MS/MS, one column per replicate IP
T2 construct: endogenous in cells; host or cells: HEK293 Flp-In/T-REx
T2 sequence (P35232 1-272): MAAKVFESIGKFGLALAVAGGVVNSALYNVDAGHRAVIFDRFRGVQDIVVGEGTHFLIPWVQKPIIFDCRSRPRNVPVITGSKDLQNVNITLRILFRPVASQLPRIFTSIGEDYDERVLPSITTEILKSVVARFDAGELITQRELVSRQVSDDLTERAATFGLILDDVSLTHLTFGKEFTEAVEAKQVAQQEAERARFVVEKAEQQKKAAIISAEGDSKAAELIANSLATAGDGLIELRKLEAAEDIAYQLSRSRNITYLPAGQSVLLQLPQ
Method: as §1, §2, §3

[4] = biological target: T3, TRIOBP (Homo sapiens, UniProt Q9H2D6); assay: Flag IP-MS of i53/i53-DM baits: prey TRIOBP; assay type: binding; settings: 293T Flp-In/T-Rex extracts, LC-MS/MS, one column per replicate IP
T3 construct: endogenous in cells; host or cells: HEK293 Flp-In/T-REx
T3 sequence (Q9H2D6 whole entry): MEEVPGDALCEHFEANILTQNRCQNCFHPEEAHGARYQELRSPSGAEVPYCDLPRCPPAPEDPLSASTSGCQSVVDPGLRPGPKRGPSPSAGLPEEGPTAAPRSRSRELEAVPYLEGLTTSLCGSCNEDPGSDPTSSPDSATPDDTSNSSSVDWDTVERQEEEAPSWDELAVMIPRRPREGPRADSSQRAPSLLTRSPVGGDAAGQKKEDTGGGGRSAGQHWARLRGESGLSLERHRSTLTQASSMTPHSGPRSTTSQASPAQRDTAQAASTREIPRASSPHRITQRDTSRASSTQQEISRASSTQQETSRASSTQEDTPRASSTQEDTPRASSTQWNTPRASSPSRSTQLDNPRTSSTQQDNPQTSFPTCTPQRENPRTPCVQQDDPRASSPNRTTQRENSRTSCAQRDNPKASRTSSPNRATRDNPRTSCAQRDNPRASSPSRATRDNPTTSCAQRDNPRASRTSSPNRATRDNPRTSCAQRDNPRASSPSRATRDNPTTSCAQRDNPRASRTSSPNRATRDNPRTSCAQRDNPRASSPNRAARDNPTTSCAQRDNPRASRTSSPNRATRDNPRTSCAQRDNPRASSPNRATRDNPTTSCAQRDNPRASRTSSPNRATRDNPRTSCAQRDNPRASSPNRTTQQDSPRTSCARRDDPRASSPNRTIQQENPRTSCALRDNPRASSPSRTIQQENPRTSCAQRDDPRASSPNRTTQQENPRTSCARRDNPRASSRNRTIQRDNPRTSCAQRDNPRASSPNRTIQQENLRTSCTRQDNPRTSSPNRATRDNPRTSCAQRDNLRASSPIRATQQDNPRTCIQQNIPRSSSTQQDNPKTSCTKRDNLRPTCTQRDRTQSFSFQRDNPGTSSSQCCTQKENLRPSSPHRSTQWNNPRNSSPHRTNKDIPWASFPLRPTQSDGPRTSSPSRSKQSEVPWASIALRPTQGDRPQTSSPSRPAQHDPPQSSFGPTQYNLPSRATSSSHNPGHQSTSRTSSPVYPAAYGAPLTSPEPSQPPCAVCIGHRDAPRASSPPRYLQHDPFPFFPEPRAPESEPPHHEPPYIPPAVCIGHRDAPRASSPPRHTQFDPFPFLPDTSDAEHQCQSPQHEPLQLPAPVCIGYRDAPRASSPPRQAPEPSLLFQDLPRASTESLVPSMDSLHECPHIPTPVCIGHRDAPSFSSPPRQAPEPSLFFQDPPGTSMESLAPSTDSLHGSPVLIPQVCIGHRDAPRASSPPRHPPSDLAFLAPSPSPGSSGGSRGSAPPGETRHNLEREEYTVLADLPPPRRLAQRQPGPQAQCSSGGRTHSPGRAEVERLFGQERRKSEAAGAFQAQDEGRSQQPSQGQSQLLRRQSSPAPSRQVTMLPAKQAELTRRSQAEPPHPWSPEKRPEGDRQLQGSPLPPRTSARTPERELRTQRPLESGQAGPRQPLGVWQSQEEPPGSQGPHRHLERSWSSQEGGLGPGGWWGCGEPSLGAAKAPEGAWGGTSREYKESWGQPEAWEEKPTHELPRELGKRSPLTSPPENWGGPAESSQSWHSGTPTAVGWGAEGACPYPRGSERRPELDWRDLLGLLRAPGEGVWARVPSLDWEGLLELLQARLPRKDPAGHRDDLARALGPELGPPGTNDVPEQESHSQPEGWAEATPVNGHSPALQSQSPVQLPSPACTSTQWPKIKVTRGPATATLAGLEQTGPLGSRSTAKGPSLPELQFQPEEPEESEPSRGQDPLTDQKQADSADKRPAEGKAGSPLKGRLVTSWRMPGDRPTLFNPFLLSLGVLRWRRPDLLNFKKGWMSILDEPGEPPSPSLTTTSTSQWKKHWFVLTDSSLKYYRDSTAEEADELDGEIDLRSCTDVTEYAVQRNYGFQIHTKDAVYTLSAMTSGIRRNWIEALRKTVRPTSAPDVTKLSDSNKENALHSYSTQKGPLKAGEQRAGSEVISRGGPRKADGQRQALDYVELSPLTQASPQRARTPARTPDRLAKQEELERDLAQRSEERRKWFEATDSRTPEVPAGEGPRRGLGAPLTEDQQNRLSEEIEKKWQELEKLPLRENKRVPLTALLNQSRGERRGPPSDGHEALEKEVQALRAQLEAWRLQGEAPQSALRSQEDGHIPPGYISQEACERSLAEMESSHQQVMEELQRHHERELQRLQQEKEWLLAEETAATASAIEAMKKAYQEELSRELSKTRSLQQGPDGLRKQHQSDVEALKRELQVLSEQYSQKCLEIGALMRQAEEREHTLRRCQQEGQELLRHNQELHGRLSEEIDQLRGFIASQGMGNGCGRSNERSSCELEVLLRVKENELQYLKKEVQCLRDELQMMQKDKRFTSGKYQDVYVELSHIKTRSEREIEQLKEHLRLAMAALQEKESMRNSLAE
Method: as §1, §2, §3

[5] = biological target: T4, RBMXL1 (Homo sapiens, UniProt Q96E39); assay: Flag IP-MS of i53/i53-DM baits: prey RBMXL1; assay type: binding; settings: 293T Flp-In/T-Rex extracts, LC-MS/MS, one column per replicate IP
T4 construct: endogenous in cells; host or cells: HEK293 Flp-In/T-REx cells
T4 sequence (Q96E39 whole entry): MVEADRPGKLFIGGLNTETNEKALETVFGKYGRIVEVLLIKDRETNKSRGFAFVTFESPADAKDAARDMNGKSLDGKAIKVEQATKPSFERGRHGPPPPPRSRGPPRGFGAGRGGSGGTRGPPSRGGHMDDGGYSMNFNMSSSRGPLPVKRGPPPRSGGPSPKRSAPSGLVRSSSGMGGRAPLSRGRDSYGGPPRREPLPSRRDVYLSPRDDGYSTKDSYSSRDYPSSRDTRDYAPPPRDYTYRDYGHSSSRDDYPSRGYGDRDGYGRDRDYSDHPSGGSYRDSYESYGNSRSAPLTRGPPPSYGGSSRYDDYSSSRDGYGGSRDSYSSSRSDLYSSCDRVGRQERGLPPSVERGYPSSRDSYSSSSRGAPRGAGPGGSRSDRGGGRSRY
Method: as §1, §2, §3

[6] = biological target: T5, MGA (Homo sapiens, UniProt Q8IWI9); assay: Flag IP-MS of i53/i53-DM baits: prey MGA; assay type: binding; settings: 293T Flp-In/T-Rex extracts, LC-MS/MS, one column per replicate IP
T5 construct: endogenous in cells; host or cells: HEK293 Flp-In/T-REx cells
Method: as §1, §2, §3

[7] = biological target: T6, DLEC1 (Homo sapiens, UniProt Q9Y238); assay: Flag IP-MS of i53/i53-DM baits: prey DLEC1; assay type: binding; settings: 293T Flp-In/T-Rex extracts, LC-MS/MS, one column per replicate IP
T6 construct: endogenous in cells; host or cells: HEK293 Flp-In/T-REx cells
T6 sequence (Q9Y238 whole entry): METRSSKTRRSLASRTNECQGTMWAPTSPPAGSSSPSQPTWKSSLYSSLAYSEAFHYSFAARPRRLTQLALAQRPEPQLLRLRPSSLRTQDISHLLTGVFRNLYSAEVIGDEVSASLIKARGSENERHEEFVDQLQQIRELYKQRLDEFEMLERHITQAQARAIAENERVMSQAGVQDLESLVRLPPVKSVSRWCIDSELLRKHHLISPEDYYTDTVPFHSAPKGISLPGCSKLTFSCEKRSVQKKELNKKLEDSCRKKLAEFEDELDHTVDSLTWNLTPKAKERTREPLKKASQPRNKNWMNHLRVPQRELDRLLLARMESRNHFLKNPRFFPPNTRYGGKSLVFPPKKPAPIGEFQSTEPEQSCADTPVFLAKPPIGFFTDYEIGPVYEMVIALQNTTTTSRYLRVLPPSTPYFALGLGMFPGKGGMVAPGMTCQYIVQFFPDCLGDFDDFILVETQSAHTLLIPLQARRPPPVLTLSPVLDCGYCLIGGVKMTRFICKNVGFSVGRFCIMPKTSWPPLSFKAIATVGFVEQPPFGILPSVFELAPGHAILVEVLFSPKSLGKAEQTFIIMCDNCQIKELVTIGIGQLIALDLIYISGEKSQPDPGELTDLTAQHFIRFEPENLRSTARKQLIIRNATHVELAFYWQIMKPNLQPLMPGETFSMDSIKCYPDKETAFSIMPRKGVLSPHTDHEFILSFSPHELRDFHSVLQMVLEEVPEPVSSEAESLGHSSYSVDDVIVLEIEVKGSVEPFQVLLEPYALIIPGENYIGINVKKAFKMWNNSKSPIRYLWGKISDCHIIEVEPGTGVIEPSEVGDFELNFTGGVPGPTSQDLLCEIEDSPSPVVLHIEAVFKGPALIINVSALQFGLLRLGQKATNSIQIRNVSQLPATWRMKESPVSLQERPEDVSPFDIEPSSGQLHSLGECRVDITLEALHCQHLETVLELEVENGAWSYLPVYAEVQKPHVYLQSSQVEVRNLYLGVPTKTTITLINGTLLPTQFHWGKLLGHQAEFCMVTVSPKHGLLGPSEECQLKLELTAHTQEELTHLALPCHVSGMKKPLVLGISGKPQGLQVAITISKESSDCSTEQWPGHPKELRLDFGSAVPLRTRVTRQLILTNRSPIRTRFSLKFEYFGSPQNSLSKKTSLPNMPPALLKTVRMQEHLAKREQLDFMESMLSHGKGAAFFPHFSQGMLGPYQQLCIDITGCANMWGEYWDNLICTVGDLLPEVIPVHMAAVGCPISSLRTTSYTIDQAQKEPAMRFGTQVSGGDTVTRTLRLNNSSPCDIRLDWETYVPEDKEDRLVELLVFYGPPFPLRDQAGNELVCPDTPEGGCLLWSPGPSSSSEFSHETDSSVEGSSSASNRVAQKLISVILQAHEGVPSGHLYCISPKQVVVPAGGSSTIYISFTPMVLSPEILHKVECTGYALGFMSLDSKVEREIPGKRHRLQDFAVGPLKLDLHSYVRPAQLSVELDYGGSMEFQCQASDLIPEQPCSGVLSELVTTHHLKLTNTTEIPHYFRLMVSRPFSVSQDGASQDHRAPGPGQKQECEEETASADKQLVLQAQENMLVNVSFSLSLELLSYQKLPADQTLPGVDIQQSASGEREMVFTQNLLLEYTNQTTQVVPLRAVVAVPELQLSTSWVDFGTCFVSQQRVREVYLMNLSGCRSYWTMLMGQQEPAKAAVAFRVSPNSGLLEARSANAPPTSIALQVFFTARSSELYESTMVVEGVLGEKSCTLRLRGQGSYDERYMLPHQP
Method: as §1, §2, §3

Row | Total peptides, GSPT1 [2] | Total peptides, PHB [3] | Total peptides, TRIOBP [4] | Total peptides, RBMXL1 [5] | Total peptides, MGA [6] | Total peptides, DLEC1 [7] | Substance | Alleviation of PARP inhibitor (olaparib) sensitivity [1]
1 | 3 | 2 | – | – | – | – | i53: UbvG08 with C-terminal di-glycine removed and I44A mutation; genetically encoded inhibitor of 53BP1 | only partially alleviated
2 | – | – | 3 | 3 | 2 | 2 | i53-DM: 53BP1-binding deficient mutant of i53 (P69L, L70V) | –

From US10808017B2, “Ubiquitin variants and uses therof as 53BP1 inhibitors” (The Governing Council of the University of Toronto, priority 2016, dated 2020)
